In the supplement of paper PMC9170038:

System: MS2 coat protein
Test: apparent KD of MS2 coat protein; higher = weaker reporter binding
Settings: Eterna round: R107
Outline: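 Illumina sequencing clusters were used for on-chip transcription of designed RNA switches. Titration with SNAP-549-labelled MS2 coat protein followed, in twofold steps from 0.7 or 1.5 nM to 3 µM in 100 mM Tris-HCl pH 7.5, 80 mM KCl, 4 mM MgCl2, without or with constant ligand. Apparent KD is each design's median of fits to normalised cluster binding curves.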

[1] = input ligand: theophylline 20 uM
[2] = input ligand: theophylline 2 mM
[3] = input ligand: tryptophan 2.4 mM

AUACAUGAGGAUCACCCAUGUAUAGUUGAAGGAGCGACCGGUGGGUCAGGUAGGUCGCAGCGCAUGGCGUCCACGCGUGUAUGCC [#1 Exclusion - Arginine A Attempt #30 (Inspired by Pi)]
apparent KD of MS2 coat protein (input ligand: arginine 13.2 mM): 10.7 nM | apparent KD of MS2 coat protein (input ligand: none): 10.7 nM | apparent KD of MS2 coat protein [1]: 16.4 nM | apparent KD of MS2 coat protein [2]: 11.3 nM | apparent KD of MS2 coat protein [3]: 11.1 nM

AUACAUGAGGAUCACCCAUGUUACACUGAAGGAGCGACAUGUUUGUCAGGUAGGUCGCAGUGAAGUUUAAUAAUUCUUUGAUCUU [#06 Same State - Arginine A]
apparent KD of MS2 coat protein (input ligand: arginine 13.2 mM): 22.4 nM | apparent KD of MS2 coat protein (input ligand: none): 24 nM | apparent KD of MS2 coat protein [1]: 36.4 nM | apparent KD of MS2 coat protein [2]: 26.5 nM | apparent KD of MS2 coat protein [3]: 23.7 nM

AUAUGAUCAUGGGAUACCAGAAAUGGUAUUCCUUUAUUUCUUACAUGAGGAUCACCCAUGUUCCCUUGGCAGCUUAUGAUCAUAU [ETHB #5]
apparent KD of MS2 coat protein (input ligand: arginine 13.2 mM): 53.7 nM | apparent KD of MS2 coat protein [1]: 85.8 nM | apparent KD of MS2 coat protein [3]: 67.9 nM

AUAUGAUCAUGUGAUACCAGAAAUGGUAUUCCUCGCUGGAUUACAUGAGGAUCACCCAUGUUCCCUUGGCAGCAUAUGAUCAUAU [#01 Exclusion-TheophyllineB]
apparent KD of MS2 coat protein (input ligand: arginine 13.2 mM): 21.3 nM | apparent KD of MS2 coat protein [1]: 36.3 nM | apparent KD of MS2 coat protein [3]: 20.9 nM

AUGAAGCUAAGAGAUACCAGUGACCACAGAUACAUGAGGAUCACCCAUGUCUCAAAUUGUCACCCUUGGCAGCUCACUAUCGAAG [theeternabot_sameState_MS2_Theo_B_29]
apparent KD of MS2 coat protein (input ligand: arginine 13.2 mM): 11.2 nM | apparent KD of MS2 coat protein [1]: 11.9 nM | apparent KD of MS2 coat protein [3]: 10.2 nM

AUGCACAUCUAGGAUACCAGCACCCUUAUGUCACUAGUUAACAUGAGGAUCACCCAUGUUUGCCCUUGGCAGCCUCAUUGACCAU [theeternabot_exclusion_MS2_Theo_B_9]
apparent KD of MS2 coat protein (input ligand: arginine 13.2 mM): 59.5 nM | apparent KD of MS2 coat protein [1]: 92.7 nM | apparent KD of MS2 coat protein [3]: 59.7 nM

AUGUAGAACCGAAGGAGCGCGAUGACAUGAGGAUCACCCAUGUAUUUGUGGUGGCUUCGAUCGCAGGUAGGUCGCGGAAGUAGUA [#04 Exclusion - Arginine B]
apparent KD of MS2 coat protein (input ligand: arginine 13.2 mM): 96.6 nM | apparent KD of MS2 coat protein (input ligand: none): 128 nM | apparent KD of MS2 coat protein [1]: 162 nM | apparent KD of MS2 coat protein [2]: 346 nM | apparent KD of MS2 coat protein [3]: 211 nM

AUGUCGUUGAAUAUAGCGGCUUGGAGUGAUACCAGUAUGAUCCAAUACCCUUGGCAGCAUUACAUGAGGAUCACCCAUGUUCCAG [SSTheo A #24]
apparent KD of MS2 coat protein (input ligand: arginine 13.2 mM): 17.2 nM | apparent KD of MS2 coat protein (input ligand: none): 22.6 nM | apparent KD of MS2 coat protein [1]: 37.2 nM | apparent KD of MS2 coat protein [2]: 53.4 nM | apparent KD of MS2 coat protein [3]: 34 nM

AUUAACAUGAGGAUCACCCAUGUUCUCACACGAGGACCGGUACGGCCGCCACUCGGUUUGGUAUUGGUCACUAGGCAGUUAGGAG [theeternabot_sameState_MS2_Trp_A_12]
apparent KD of MS2 coat protein (input ligand: arginine 13.2 mM): 15.2 nM | apparent KD of MS2 coat protein [1]: 26.7 nM | apparent KD of MS2 coat protein [2]: 17 nM

AUUAUAGUUUAUAAGGAAAUUGAAACAGAAGGAGCGUGAGUAAUCACAGGUAGGUCGCUGGUAGUACAUGAGGAUCACCCAUGUU [JR_Nu_SSArginiA_Sub019]
apparent KD of MS2 coat protein (input ligand: arginine 13.2 mM): 21.9 nM | apparent KD of MS2 coat protein (input ligand: none): 24.1 nM | apparent KD of MS2 coat protein [1]: 32.2 nM | apparent KD of MS2 coat protein [2]: 26.5 nM | apparent KD of MS2 coat protein [3]: 22.4 nM

AUUCAUGGAAACAUGACAUACAUAACCGGUCGAGGACCGGUACGGCCGCCACUCGUUUGGAGGCACAUGAGGAUCACCCAUGUUA [SS Tryp A #9]
apparent KD of MS2 coat protein (input ligand: arginine 13.2 mM): 21.7 nM | apparent KD of MS2 coat protein [1]: 35.9 nM | apparent KD of MS2 coat protein [2]: 28.2 nM

AUUCAUGGAAACAUGAGAUAUCCUACCGGUCGAGGACCGGUACGGCCGCCACUCGGUUGGUGGCACAUGAGGAUCACCCAUGUUA [SS Tryp A #12]
apparent KD of MS2 coat protein (input ligand: arginine 13.2 mM): 77.6 nM | apparent KD of MS2 coat protein [1]: 310 nM | apparent KD of MS2 coat protein [2]: 378 nM

CAAUAAGUACCGGUCCUCAGAUCCUCAUGACGAGGACCGGUACGGCCGCCACUCGAAACAUGAGGAUCACCCAUGUAAUAAUAAC [Brourdmod02]
apparent KD of MS2 coat protein (input ligand: arginine 13.2 mM): 20.6 nM | apparent KD of MS2 coat protein [1]: 68.4 nM | apparent KD of MS2 coat protein [2]: 51.9 nM

CAAUAGAUAGCGGCCGCCACUUACUCAUGAGGUAACAACAUGAGGAUCACCCAUGUUUGAGGAUCAAGGACCGGGCUAUUUAUUG [AstrosSSTryB#7]
apparent KD of MS2 coat protein (input ligand: arginine 13.2 mM): 29.1 nM | apparent KD of MS2 coat protein (input ligand: none): 27.5 nM | apparent KD of MS2 coat protein [1]: 39.1 nM | apparent KD of MS2 coat protein [2]: 31.9 nM | apparent KD of MS2 coat protein [3]: 19.1 nM

CACGCACGAUCGGCCGCCACUCGUGUAGCUUACAUGAGGAUCACCCAUGUAUGUUCAUUCAUAUAGAGGACCGGGAUCGUGCGUG [#05 Same State - Tryptophan B]
apparent KD of MS2 coat protein (input ligand: arginine 13.2 mM): 9.09 nM | apparent KD of MS2 coat protein (input ligand: none): 12.8 nM | apparent KD of MS2 coat protein [1]: 18.5 nM | apparent KD of MS2 coat protein [2]: 12.1 nM | apparent KD of MS2 coat protein [3]: 11.7 nM

CAUAGCAAAAGUGAUACCAGAGUUCGAGGGAACAUGAGGAUCACCCAUGUGCUUGUACAACUCCCUUGGCAGCACAGAGCAAUUA [theeternabot_sameState_MS2_Theo_B_16]
apparent KD of MS2 coat protein (input ligand: arginine 13.2 mM): 24.3 nM | apparent KD of MS2 coat protein [1]: 22.1 nM | apparent KD of MS2 coat protein [3]: 26.9 nM

CAUAUAUAUGGAAGGAGCGCGAUUACAUAACAUGAGGAUCACCCAUGUAAGAAAUUAUUCAUGCAGGUAGGUCGCCAUAUAUAUG [Same State Arginine B GF6]
apparent KD of MS2 coat protein (input ligand: arginine 13.2 mM): 29.3 nM | apparent KD of MS2 coat protein (input ligand: none): 24 nM | apparent KD of MS2 coat protein [1]: 35.3 nM | apparent KD of MS2 coat protein [2]: 27 nM | apparent KD of MS2 coat protein [3]: 26.6 nM

CAUUUUAGAAAACUAAAAUGAGUGGGUGAACGAGGACCGGUACGGCCGCCACUCGGACAUGAGGAUCACCCAUGUCCAUGUGAAA [AstrosExyTryA#22]
apparent KD of MS2 coat protein (input ligand: arginine 13.2 mM): 22.8 nM | apparent KD of MS2 coat protein (input ligand: none): 14.1 nM | apparent KD of MS2 coat protein [1]: 15 nM | apparent KD of MS2 coat protein [2]: 14.4 nM | apparent KD of MS2 coat protein [3]: 37.8 nM

CCAUAAGUACCGGUCCUCAGAUCCUCAUGACGAGGACCGGUACGGCCGCCACUCGAAACAUGAGGAUCACCCAUGUAAUAAUAUC [Brourdmod17]
apparent KD of MS2 coat protein (input ligand: arginine 13.2 mM): 25.5 nM | apparent KD of MS2 coat protein [1]: 53.1 nM | apparent KD of MS2 coat protein [2]: 66 nM
